Data as given in patent US20250157661.

B1: MMP1 (Enzo) (protein)
chain: FVLTEGNPRWEQTHLTYRIENYTPDLPRADVDHAIEKAFQLWSNVTPLTFTKVSEGQADIMISFVRGDHRDNSPFDGPGGNLAHAFQPGPGIGGDAHFDEDERWTNNFREYNLHRVAAHELGHSLGLSHSTDIGALMYPSYTFSGDVQLAQDDIDGIQAIYGRSQNPVQP
B2: MMP12 (Enzo) (protein)
chain: GPVWRKHYITYRINNYTPDMNREDVDYAIRKAFQVWSNVTPLKFSKINTGMADILVVFARGAHGDFHAFDGKGGILAHAFGPGSGIGGDAHFDEDEFWTTHSGGTNLFLTAVHEIGHSLGLGHSSDPKAVMFPTYKYVDINTFRLSADDIRGIQSLYG
B3: MMP11 (Enzo) (protein)
chain: FVLSGGRWEKTDLTYRILRFPWQLVQEQVRQTMAEALKVWSDVTPLTFTEVHEGRADIMIDFARYWHGDDLPFDGPGGILAHAFFPKTHREGDVHFDYDETWTIGDDQGTDLLQVAAHEFGHVLGLQHTTAAKALMSAFYTFRYPLSLSPDDCRGVQHLYGQPWPTVTSRTPALG
B4: MMP7 (Enzo) (protein)
chain: YSLFPNSPKWTSKVVTYRIVSYTRDLPHITVDRLVSKALNMWGKEIPLHFRKVVWGTADIMIGFARGAHGDSYPFDGPGNTLAHAFAPGTGLGGDAHFDEDERWTDGSSLGINFLYAATHELGHSLGMGHSSDPNAVMYPTYGNGDPQNFKLSQDDIKGIQKLYGKRSNSRKK

These proteins were tested against Indicator molecule containing the cleavable sequence GPQGIFGQ with a terminal biotin group connected via a polyethylene glycol spacer/linker (intact, Examples 1-6).

Protein | Reader value (lateral flow, CF1522-gold) with MMP at 0.5 ug/ml
B1 | 478 reader units
B2 | 1250 reader units
B3 | 280 reader units
B4 | 373 reader units
